Laboratory results from the supplement of paper PMC9170038.

System: MS2 coat protein
Experiment: apparent KD of MS2 coat protein; designed switch direction (-1 OFF switch, 1 ON switch): 1; higher = weaker reporter binding
Outline: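 SNAP-549-labelled MS2 coat protein was titrated, doubling from 0.7 or 1.5 nM to 3 µM, over designed RNA switches transcribed on Illumina chips by stalled E. coli RNA polymerase. Runs were done without input, with 200 uM small-molecule ligand, or with an oligonucleotide input. Apparent KD is the per-design median over clusters of curve-fitted normalised fluorescence.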

[1] = input ligand: microRNA oligo, concentration not stated
[2] = Eterna round: R95, input ligand: FMN 200 uM
[3] = Eterna round: R95, input ligand: microRNA oligo, concentration not stated
[4] = Eterna round: R95, input ligand: none

| Sequence | apparent KD of MS2 coat protein (input ligand: FMN 200 uM) | apparent KD of MS2 coat protein [1] | apparent KD of MS2 coat protein (input ligand: none) | apparent KD of MS2 coat protein [2] | apparent KD of MS2 coat protein [3] | apparent KD of MS2 coat protein [4] |
| --- | --- | --- | --- | --- | --- | --- |
| GGACGUCAACUCACUAAUUAACAUGAGGAUCACCCAUGUUCACAGGAUAUGAGUCCGAUUAGGACUCAGAAGGGUGAGACGUCC [Fiskers NG3ss - 48] (Eterna round: R96, puzzle: Same State NG 3) | 0.0203 µM | 0.0197 µM | 0.0211 µM |  |  |  |
| GUGGUCAGACAUGAGGAUCACCCAUGUGGAAUAAAUAAGGAAAAGGAUAUCGAAUAUAGGAUAUACGAGAAGGUUUGGUUGGUG (Eterna round: R96, puzzle: Same State NG 3) |  | 0.0736 µM |  |  |  |  |
| AAGUGAAUAGUGAUUACAUGAGGAUCACCCAUGUGGUGGAUGCAGGAUAUUAUUAGACCGUACAAUAAGAAGGGCGUAAUCACC [Eternabot solution 44] (Eterna round: R96, puzzle: Same State NG 3) | 0.226 µM | 0.27 µM | 0.403 µM |  |  |  |
| AUUAGUAAUGCAGGAUAUGAUUAACAUGAGGAUCACCCAUGUGGUGUUGUGAGUAAGGAGAGUGAUCAGAAGGGCAUUUUUUUU [JMF's solution 28] (Eterna round: R96, puzzle: Same State NG 2) | 0.979 µM | 0.411 µM | 0.444 µM |  |  |  |
| GGAGCCGGCACCGAGGAUAUUCAUAUUAAAACAUGAGGAUCACCCAUGUACCGCAGAAGCGGUUGGGAGAAGGCGGAUCGGCUCG [Xeonanis - 23] (puzzle: Same State 2) |  |  |  | 0.033 µM | 0.271 µM | 0.73 µM |
| AUUAUUAAUGCAGGAUAUGAUUAACAUGAGGAUCACCCAUGUGGUGUUGUGAGUAAGGAGAGUGAUCAGAAGGGCAUUUCUUUU [JMF's solution 11] (Eterna round: R96, puzzle: Same State NG 2) | 0.468 µM | 0.241 µM | 0.373 µM |  |  |  |
| AUUAUACAUGAGGAUCACCCAUGUAAUUAAUCUAGUAAGAUCUAGGAUAUCAGCUCGUUUAGAGCUGAGAAGGAGAUCACAUGU [SSNG3/20-D3] (Eterna round: R96, puzzle: Same State NG 3) |  | 0.038 µM |  |  |  |  |
| GGAGCCGGCCUAGGAUAUUUCAUAAUAAUACAUGAGGAUCACCCAUGUAGGCCAGAAGGCCUUGGGAAGAAGGAGGUCGGCUCC [Loop Effect - U26,U29] (Eterna round: R96, puzzle: Same State NG 2) | 0.0141 µM | 0.026 µM | 0.0432 µM |  |  |  |
| CCGGAUAAUGGAGGAUAUGGAGCCUUAUUGGCUCCAGAAGGCUAACAUGAGGAUCACCCAUGUAGUCCGGCGGUCAAUAGACCG [Eli NG1ss - 67] (Eterna round: R96, puzzle: Same State NG 1) | 0.0109 µM | 0.0115 µM | 0.0216 µM |  |  |  |
| GUGCAACCGUGUGAGGAUAUCGGUGAAUAGACAUGAGGAUCACCCAUGUCCGAAGCUCGGUUCUCCGAGAAGGCGCACAGUUGCA [Same State 2 - Mod of Erisin v.5] (puzzle: Same State 2) |  |  |  | 0.0428 µM | 0.0415 µM | 0.0524 µM |
| AGCCGAAGCGCAGGAUAUACAUGCACACAUGAGGAUCACCCAUGUGGCAACACGUGGUAGUGAUUGUAGAAGGGUGCUCGGCGC [Omei SS(NG)2 Cv16] (Eterna round: R96, puzzle: Same State NG 2) | 0.0601 µM | 0.0344 µM | 0.051 µM |  |  |  |
| CCAAUGUACAAUUUAGAUCUACAUGAGGAUCACCCAUGUACAGAGGAUAUCAGCUCGUGUAGAGCUGAGAAGGCUGAAUUAAUU [SSNG3/3-A4] (Eterna round: R96, puzzle: Same State NG 3) | 0.117 µM | 0.117 µM | 0.179 µM |  |  |  |
| AGAUCAUGACGAGGAUAUGGAACAUGAGGAUCACCCAUGUAUGUUCCAUAACGCGAACGACGAAUCCAGAAGGCGUCGUGAUCA [Mat - Same State NG 2 - JL mod - D42] (Eterna round: R96, puzzle: Same State NG 2) | 0.00524 µM | 0.0216 µM | 0.0263 µM |  |  |  |
| CCUGACAUGAGGAUCACCCAUGUAGGGAAACAAUGACAUAUGGAGGAUAUACACCCGAAAGGCGCGUAGAAGGUCACAUGUCCA [Eternabot solution 5] (Eterna round: R96, puzzle: Same State NG 3) | 0.0107 µM | 0.0108 µM | 0.013 µM |  |  |  |
| GGGAGAGGUACAGGAUAUGGUGAGGAUCACCCACUAGAAGGGUGCACAUGUGAAUCGGACAUGAGGAUCACCCAUGUUGGGCGU (Eterna round: R96, puzzle: Same State NG 1) | 0.213 µM | 0.265 µM | 0.424 µM |  |  |  |
| AGUCCAGCCAGAGCUGGACAAAAGCAUGUACAUGAGGAUCACCCAUGUUCAUGUACAAGCUUUUUGCUCGUCAAAAG [Mat - hsa-mir-208a - Mod of JL - 69] (puzzle: Sensor for hsa-mir-208a) |  |  |  | 0.304 µM | 0.0177 µM | 0.233 µM |
| GUGAAGAAUUAAGGAUAUUGAAUACAUAUGUUUAACAUGAGGAUCACCCAUGUGGGUUGCGGUAUCGAGAAGGUAAAUUACUAG [salish99_SSNG2_r04_031] (Eterna round: R96, puzzle: Same State NG 2) | 0.0955 µM | 0.0899 µM | 0.118 µM |  |  |  |
| UACAAUCUAUCUGAGGAUAUCAUGAAAAAAACAUGAGGAUCACCCAUGUGCAGGAAAACUGCAUAUGAGAAGGCAGAUAGAUUGG [salish99_SS2_r3_007] (Eterna round: R96, puzzle: Same State 2) |  | 0.505 µM |  |  |  |  |
| AAAAUCUACGAAAGUAGAACAAGCUUAAGACAUGAGGAUCACCCAUGUCAUGUCUUAAAACAUGAGGAAACUCAUGA [hsa-mir-208a sensor: 17] (Eterna round: R96, puzzle: Sensor for hsa-mir-208a) | 0.273 µM | 0.182 µM | 0.252 µM |  |  |  |
| UGGAUCUAGGCUUGCCUGGGUCCAUGCUGACAUGAGGAUCACCCAUGUGCAUCCUACAAGCUUUUUGCUUGUCAGUU (Eterna round: R96, puzzle: Sensor for hsa-mir-208a) | 0.575 µM | 0.33 µM | 0.289 µM |  |  |  |
| UUAAAACAUGAGGAUCACCCAUGUAAUAAUAUGGGAGGAUAUCAGAAUGUAUGUAUGUAAUGAGAAGGCCUAAAUU [Mat - Same State 1 - Mod of Eli - D76] (puzzle: Same State 1) |  |  |  | 0.0636 µM | 0.519 µM | 1.28 µM |
| GCUAGAAUAAAUGCCUACAUGAGGAUCACCCAUGUAUGUAGGCAGGAUAUCGUUUGCAAAGCAAACGAGAAGGGCCUUACUAGC [Mat - Same State NG 3 - JL Mod - D29] (Eterna round: R96, puzzle: Same State NG 3) | 0.0215 µM | 0.043 µM | 0.0557 µM |  |  |  |
| AAUAUAUUAAGUGAGGAUAUCGAGGAAAAAACAUGAGGAUCACCCAUGUGGGUAAAAAAAAAAAGUGAGAAGGUGCUUAAUAUAU [Samwise Clockwise 10 - Jieux - Same State 2] (Eterna round: R96, puzzle: Same State 2) | 0.0349 µM | 0.0401 µM | 0.0691 µM |  |  |  |
| UAGCGCUGUCGAGAGGAUAUGCGGUGAUGGACAUGAGGAUCACCCAUGUUAGCGAUAGCAUUACGGUAGAAGGCUCUACAGCUGU [salish99_ss2_r3_093] (Eterna round: R96, puzzle: Same State 2) | 0.0382 µM | 0.342 µM | 0.694 µM |  |  |  |
| UGGCUCAGACGAGGAUAUAUGUGGUCACAUGAGGAUCACCCAUGUCUCGAGCUUCGGCUCGAGGCAUAGAAGGCGUCUGAGCCA [SSNG2/5-A2] (Eterna round: R96, puzzle: Same State NG 2) | 1.3 µM | 0.0508 µM | 0.632 µM |  |  |  |
| UACAAUCUAUCUGAGGAUAUCAUGAAAAAAACAUGAGGAUCACCCAUGUGCAGGAAAACUGCAUAUGAGAAGGCAGAUAGAUUGG [salish99_SS2_r3_007] (puzzle: Same State 2) |  |  |  | 0.0143 µM | 3.39 µM | 11.7 µM |
| GCUAGAAUCAAAGCCAACAUGAGGAUCACCCAUGUAUGUUGGUAGGAUAUCGUUUGCUUUGCAAACGAGAAGGACCAAACUAGC [SameState NG3 #1] (Eterna round: R96, puzzle: Same State NG 3) | 0.0302 µM | 0.0753 µM | 0.0871 µM |  |  |  |
| AACUUACGACCACAGGAUAUACUGAGGCGGACAUGAGGAUCACCCAUGUAGGCAAAAUAAGGGCAGUAGAAGGGUGGUCUUUACA [Usbiraxe] (puzzle: Same State 2) |  |  |  | 0.0184 µM | 0.0188 µM | 0.0275 µM |
| UGUUGUAUUACAGGAUAUCUAGUAUUUGUAUUUAGAGAAGGGUAUUCACAUGAGGAUCACCCAUGUAUAUACGAGGAAGUUGUG [JMF's solution 42] (Eterna round: R96, puzzle: Same State NG 1) | 0.0537 µM | 0.0354 µM | 0.0483 µM |  |  |  |
| GAGUAGUACGGAGGAUAUGGGCAGAACAAGACACCAGAAGGCCGACAUGAGGAUGCUGGACAUGAGGAUCACCCAUGUACCUGA [Same State 1 S3] (Eterna round: R96, puzzle: Same State NG 1) | 0.0228 µM | 0.0926 µM | 0.0854 µM |  |  |  |
